# From US6339070B1, “Gene construct encoding a heterologous prodrug-activating enzyme and a cell targeting moiety” (Zeneca Limited, priority 1997, dated 2002)
# “Also recorded” adds a separate entry of the source.
# T1: human carcinoembryonic antigen (CEA) (Homo sapiens, UniProt P06731)
# T1 sequence (P06731 35-676): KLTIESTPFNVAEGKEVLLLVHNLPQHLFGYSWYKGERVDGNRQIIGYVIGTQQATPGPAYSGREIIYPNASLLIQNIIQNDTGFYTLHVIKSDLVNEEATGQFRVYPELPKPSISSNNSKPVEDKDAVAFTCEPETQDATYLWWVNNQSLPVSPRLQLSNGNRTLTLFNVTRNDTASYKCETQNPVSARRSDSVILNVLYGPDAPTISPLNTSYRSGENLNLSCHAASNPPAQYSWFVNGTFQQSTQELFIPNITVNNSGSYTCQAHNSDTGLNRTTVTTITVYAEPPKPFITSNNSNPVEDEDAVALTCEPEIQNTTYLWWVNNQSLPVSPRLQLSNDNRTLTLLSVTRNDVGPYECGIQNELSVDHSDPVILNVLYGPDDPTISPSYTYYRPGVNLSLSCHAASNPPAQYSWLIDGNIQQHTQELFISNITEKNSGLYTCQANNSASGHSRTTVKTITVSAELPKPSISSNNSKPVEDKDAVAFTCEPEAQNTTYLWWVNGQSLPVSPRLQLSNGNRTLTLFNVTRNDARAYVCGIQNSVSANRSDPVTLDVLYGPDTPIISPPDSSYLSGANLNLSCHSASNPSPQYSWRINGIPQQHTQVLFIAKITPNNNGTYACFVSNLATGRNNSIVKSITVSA
# Tests used:
# [1] = target: T1, human carcinoembryonic antigen (CEA); assay: CEA-binding ELISA, anti human kappa light chain reporter antibody; details: COS-7 transient expression supernatant
# Procedure: For the CEA ELISA each well of a 96 well immunoplate (NUNC MAXISORB™) was coated with 50 ng CEA in 50 mM carbonate/bicarbonate coating buffer pH9.6 (buffer capsules—Sigma C3041) and incubated at 4° overnight. The plate was washed three times with PBS-TWEEN™ (PBS+0.05% TWEEN™ 20) and then blocked 150 μl per well of 1% BSA in PBS-TWEEN™ for 1 hour at room temperature. The plate was washed three times with PBS-TWEEN™, 100 μl of test sample added per well and incubated at room temperature for 2 hours. The plate was washed three times with PBS-TWEEN™, 100 μl per well of a 1/500 dilution of HRPO-labelled goat anti-human kappa antibody (Sigma A 7164) was added in 1% BSA in PBS-TWEEN™ and incubated at room temperature on a rocking platform for at least 1 hour. The plate was washed three times with PBS-TWEEN™ and then once more with PBS. To detect binding, add 100 μl per well of developing solution (one capsule of phosphate-citrate buffer—Sigma P4922—dissolved in 100 ml H2O to which is added one 30 mg tablet o-phenylenediamine dihydrochloride—Sigma P8412) and incubated for up to 15 minutes. The reaction was stopped by adding 75 μl 2M H2SO4, and absorbance read at 490 nm.
# [2] = test system: recombinant LoVo tumour cells; assay: Retention of secreted fusion protein on recombinant LoVo cells (cell based ELISA); details: CEA positive, without added anti-CEA antibody, listed as (A5B7-CPG2)2 fusion protein
# Procedure: (§1) The vertical axis represents optical density readings measured at 490 nm and the horizontal axis the amount of added anti-CEA antibody (IIE6) measured in ng/ml of protein. […] Firstly, the cell lines were fixed and washed to remove the existing supernatant and any unbound material after which increasing concentrations of the anti-CEA antibody (IIE6) were added to the fixed cells. The assay was developed as described in the text to determine the level of retention of any secreted material and whether further added antibody would increase the signal. […] Since the recombinant Colo320DM are CEA negative no increase in signal due to anti-CEA antibody the results for these cells would be expected. In the case of the recombinant LoVo cells the addition signal due the amounts of antibody added in this assay may be swamped except at the highest dose due to the relative strength of the original signal.
# (§2) LoVo colorectal tumour cells transfected with the (A5B7-CPG2)2 fusion protein gene have been shown both to secrete and to retain the fusion protein on their cell surface. […] The recombinant LoVo cells still gave such a strong initial signal that the added antibody made little difference to the overall signal obtained, which was considerably higher than any of the control experiments.
# [3] = test system: recombinant Colo320DM (CEA negative); assay: Retention of secreted fusion protein on recombinant Colo320DM cells (cell based ELISA); details: listed as (A5B7-CPG2)2 fusion protein
# Procedure: as §1, §2
# [4] = Enzyme activity in tumour xenograft samples (methotrexate turnover, HPLC); format: in vivo, athymic nude mice; details: 20% recombinant: 80% parental LoVo tumours
# Procedure: Recombinant LoVo fusion protein (A5B7-CPG2)2 expressing tumour cells or mixes of recombinant and parental LoVo cells were injected subcutaneously into athymic nude mice (10^7 tumour cells per mouse). The tumour growth rates for both 100% recombinant and 20%: 80% mixes of recombinant:parental LoVo cells were compared to those of parental cell only tumours.
# To act as a standard for the assay, a CPG2 enzyme standard curve was prepared in 20% homogenate of normal tumour (parental cell tumour). Subsequent dilutions of samples were made in the same 20% homogenate of normal tumour.
# Excised tumour tissue is removed from −80° storage (previously flash frozen in liquid nitrogen) and allowed to thaw. Any residual skin tissue was removed before the tumour was cut up in to small fragments with a scalpel. The tumour tissue was transferred to a preweighed tube and the weight of tumour tissue measured. PBS containing 0.2 mM ZnCl2 solution was added to each tumour sample to give a 20% (w/v) mix, homogenised and placed on ice. Dilutions of sample tumours (in 20% normal tumour homogenate) were prepared e.g. neat, 1/10, 1/20 and 1/40.
# For the standard curve, dilutions of CPG2 enzyme were made to the following concentrations to a final volume of 400 μl. Similarly, 400 μl of each of the recombinant tumour sample dilutions were also prepared. After equilibration to 30°, 4 μl of 10 mM methotrexate (MTX) solution was added. The reaction was stopped after exactly 10 minutes by adding 600 μl ice cold methanol+0.2% TFA, centrifuged and the supematant collected. The substrate and product in the supernatant were then separated by HPLC (using a Cation Exchange Column, HICROM™ S5SCX-100 A, mobile phase=60% methanol, 40% 60 mM ammonium formate/0.1% TFA, detection 300 nm). To calculate enzyme activity in the tumour tissue, the standard curve was plotted as units of area of methotrexate metabolite (the standards are such that only 20-30% of the substrate is metabolised so ensuring this is not rate limiting). The test samples were analysed by comparing the unit area of metabolite against the standard curve and then multiplying by the dilution factor. Finally, making the working assumption that 1 ml=1 g the results were multiplied by 5 (as the samples were originally diluted to a 20% homogenate).
# [5] = test system: CPG2; details: COS-7 transient expression supernatant
molecule,measurement,setting,value
"(A5B7 Fab-CPG2)2 fusion protein: chimaeric A5B7 anti-CEA Fab, heavy chain Fd linked via (G4S)3 linker to CPG2 R6, dimerised through CPG2 (antibody) heavy: EVKLVESGGGLVQPGGSLRLSCATSGFTFTDYYMNWVRQPPGKALEWLGFIGNKANGYTTEYSASVKGRFTISRDKSQSILYLQMNTLRAEDSATYYCTRDRGLRFYFDYWGQGTTLTVSSASTKGPSVFPLAPCSRSTSESTAALGCLVKDYFPEPVTVSWNSGALTSGVHTFPAVLQSSGLYSLSSVVTVPSSNFGTQTYTCNVDHKPSNTKVDKTVGGGGSGGGGSGGGGSQKRDNVLFQAATDEQPAVIKTLEKLVNIETGTGDAEGIAAAGNFLEAELKNLGFTVTRSKSAGLVVGDNIVGKIKGRGGKNLLLMSHMDTVYLKGILAKAPFRVEGDKAYGPGIADDKGGNAVILHTLKLLKEYGVRDYGTITVLFNTDEEKGSFGSRDLIQEEAKLADYVLSFEPTSAGDEKLSLGTSGIAYVQVQITGKASHAGAAPELGVNALVEASDLVLRTMNIDDKAKNLRFQWTIAKAGQVSNIIPASATLNADVRYARNEDFDAAMKTLEERAQQKKLPEADVKVIVTRGRPAFNAGEGGKKLVDKAVAYYKEAGGTLGVEERTGGGTDAAYAALSGKPVIESLGLPGFGYHSDKAEYVDISAIPRRLYMAARLIMDLGAGK light: QTVLSQSPAILSASPGEKVTMTCRASSSVTYIHWYQQKPGSSPKSWIYATSNLASGVPARFSGSGSGTSYSLTISRVEAEDAATYYCQHWSSKPPTFGGGTKLEIKRTVAAPSVFIFPPSDEQLKSGTASVVCLLNNFYPREAKVQWKVDNALQSGNSQESVTEQDSKDSTYSLSSTLTLSKADYEKHKVYACEVTHQGLSSPVTKSFNRGEC",CEA binding in anti-CEA ELISA,[1],binding of protein at levels commensurate with a bivalent A5B7 antibody molecule
same,retention of expressed fusion protein on cell surface (OD 490 nm),[2],had retained the expressed fusion protein; also recorded: very strong OD 490 nm reading
same,retention of expressed fusion protein on cell surface (OD 490 nm),[3],some retention of the expressed fusion protein (probably non-specific); also recorded: much weaker reading than the LoVo cells but the signal was higher than background
same,average enzyme activity in tumour,[4]; day 5,0.26 U/g
same,range of enzyme activity in tumour,[4]; day 5,0.18-0.36 U/g
same,average enzyme activity in tumour,[4]; day 12,0.65 U/g
same,range of enzyme activity in tumour,[4]; day 12,0.19-1.1 U/g
same,CPG2 enzyme activity in cell supernatant,[5],CPG2 enzyme activity to be present in the cell supernatant
